Reference: patent US20200369772A1 (ABBA THERAPEUTICS, published 2020)
Positions count from the first letter of the chain named. Names and notes keep the numbering of the source.

T1: recombinant human PD-L2-Fc-biotin (human, UniProt Q9BQ51 20-220, biotin)
T1 chain: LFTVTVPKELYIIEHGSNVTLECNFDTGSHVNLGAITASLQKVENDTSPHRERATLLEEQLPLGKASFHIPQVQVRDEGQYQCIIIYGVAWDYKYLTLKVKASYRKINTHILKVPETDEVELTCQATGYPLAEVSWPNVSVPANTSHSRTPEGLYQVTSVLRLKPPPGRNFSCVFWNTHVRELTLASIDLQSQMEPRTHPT

T2: human PD-L2 (full-length, on cells) (human, UniProt Q9BQ51 20-273)
T2 chain: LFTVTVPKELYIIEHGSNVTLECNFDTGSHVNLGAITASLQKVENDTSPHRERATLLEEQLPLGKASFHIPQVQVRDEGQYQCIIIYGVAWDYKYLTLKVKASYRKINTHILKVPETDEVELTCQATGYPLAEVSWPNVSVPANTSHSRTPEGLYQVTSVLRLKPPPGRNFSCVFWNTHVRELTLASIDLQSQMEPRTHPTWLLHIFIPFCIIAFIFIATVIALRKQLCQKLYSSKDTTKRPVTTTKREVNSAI

T3: human PD-L2 (full-length, on cells) (human, UniProt Q9BQ51 20-273)
T3 construct: whole, on cells; CHO-K1 cells stably expressing full-length human PD-L2; also endogenous on NCI-H226 and transfected in Jurkat cells; also called hPD-L2; CHO-K1/hPD-L2
T3 sequence (looked up): T2 chain

T4: mouse PD-L2 (full-length, on cells) (mouse, UniProt Q9WUL5 20-247)
T4 construct: whole, on cells; HEK293 cells stably expressing full-length mouse PD-L2
T4 sequence (looked up): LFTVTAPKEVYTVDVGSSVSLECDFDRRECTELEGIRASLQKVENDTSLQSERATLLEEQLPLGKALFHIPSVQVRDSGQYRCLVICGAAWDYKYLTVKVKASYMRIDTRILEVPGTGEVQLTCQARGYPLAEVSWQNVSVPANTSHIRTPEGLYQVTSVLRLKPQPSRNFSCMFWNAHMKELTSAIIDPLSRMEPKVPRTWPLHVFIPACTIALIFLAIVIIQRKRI

B1: 12A1-D4 (antibody, V domains shown)
VH: QVQLQESGPGLVKPSGTLSLTCAVSGGSISSNNWWSWVRQPPGKGLEWIGEIFHVGSTNYNPSLKSRVTISVDKSKNQFSLKLSSLTAADTAVYYCARMVGATGHYYGMDVWGQGTTVTVSS
VL: DIQLTQSPSFLSASVGDRVTITCRASQGISSSLAWYQQKPGKAPKFLIYAASTLQSGVPSRFSGSGSGTEFTLTISSLQPEDFATYYCQQLNSYPKSWTFGQGTKVEIK
notes: Both formats under this entry
B2: 10D1-G1 (antibody, V domains shown)
VH: QVQLQESGPGLVKPSGTLSLTCAVSGGSISSSYWWSWVRQPPGKGLEWIGEIFHIGSTNYNPSLRSRVTISVVKSKNQFSLNLNSVTAADTAVYFCARVSGGYGYFSGMDVWGQGTTVTVSS
VL: DIQMTQSPSSLSASVGDRVTITCRASQGIRNDLGWYQQKPGKAPKRLIYGASSLQSGVPSRFSGSGSGTEFTLTISSLQPEDFATYYCLQHNSYPRTFGQGTKVEIK
notes: Both formats under this entry
B3: 10A9-D2 (antibody, V domains shown)
VH: QVQLQESGPGLVKPSETLSLTCAVSGGSISSSYWWSWVRQPPGKGLEWVGEVFHVGVTNYNPSLKSRVTISVDKSKNQFSLKLTSVTAADTAVYYCARVTGTTGYYHGLDVWGQGTTVTVFS
VL: B2 VL with A43V, G50A, V58I, S93N
notes: Both formats under this entry
B4: 7H5-C5 (antibody, V domains shown)
VH: QVQLVESGGGLVKPGGSLRLSCAASGFSLSDYYMSWTRQAPGRGLEWVSFISSSGSTIYYVDSVKGRFTISRDHAKNSLYLQINSLRAEDTAVYYCARAQWLPDFDYWGQGTLVTVSS
VL: QSALTQPPSASGSPGQSVTISCTGTSSDVSGYNYVSWYQHHPDKAPKLLIYEVNKRPSGVPARFSGSKSGNTASLTVSGLQAEDEADYYCTSFADNNNVVFGGGTKLTVLG
notes: Both formats under this entry
B5: 9A3-C7 (antibody, V domains shown)
VH: B4 VH with T37I, F50Y, H74N, Y95H
VL: B4 VL with S30G, D43G, A45V, L49M, N54S, A62D, V100G
notes: Both formats under this entry
B6: 19B3-B3 (antibody, V domains shown)
VH: QVQLVQSGAEVKKPGASVKVSCMASGYTFTNYAIHWVRQAPGQRLEWMGWINTGLGKPKYSQMFQDRVTITRDTSASTASMELSGLRSDDTAVYYCARVGWELYFDYWGQGTLVTVSS
VL: DIQMTQSPSTLSASVGDRVTITCRASQSISSLLAWYQQKPGKAPKLLIYKASSLESGVPSRFSGSGSGTEFTLTISSLQPDDFATYFCQQYNSYWTFGQGTKVEIK
notes: Both formats under this entry
B7: 2-19H2 (antibody, V domains shown)
VH: B6 VH with M23K, M63L
VL: B6 VL with S28T, L32W, K45N, F87Y, N92Y
notes: VH of 19B3-B3 M23K.M63L.HC with VL of 2C4-E4; kappa; also called 2-H192

Target: T1, recombinant human PD-L2-Fc-biotin
Assay: blocking of PD-L2 - PD-1 interaction (cell binding); low antigen concentration
Summary of the method: (§1)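 The IC50 was calculated by non-linear curve fitting in GraphPad Prism from a flow cytometry assay of ligand binding to HEK293 cells stably expressing human PD-1. For this, antibody in serial dilution (0.03 ng/ml-0.5 μg/ml) was first held with recombinant human PD-L2-Fc-biotin (5 ng/ml, 100 pM) in 100 μl for 60 min at 4° C, then added to 1.5×10⁵ cells for 30 min at 4° C. Binding was read with fluorochrome-conjugated streptavidin (20 min, 4° C), with control wells defining 0% and 100% binding.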

Row | IC50 [nM] | Binder
1 | 0.0103 | B1
2 | 0.0252 | B2
3 | 0.0103 | B3
4 | 0.0311 | B4
5 | 0.0375 | B5
6 | 0.0248 | B6

Target: T2, human PD-L2 (full-length, on cells)
Assay: blocking of hPD-1 binding to CHO-K1/hPD-L2 cells
Summary of the method: (§2)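 Serially diluted antibody (0.25 ng/ml-4 μg/ml) was applied for 30 min at 4° C to 1.5×10⁵ CHO-K1 cells stably expressing human PD-L2, after which 0.5 μg/ml recombinant human PD-1-mouse Fc was added for 30 min at 4° C and detected with fluorochrome-conjugated anti-mouse IgG2a (1:200, 20 min, 4° C). Bound PD-1 was read by flow cytometry against reference wells setting 0% and 100% binding. The IC50 was calculated through non-linear curve fitting in GraphPad Prism.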

Row | IC50 [nM] | Binder
7 | 0.37 | B1
8 | 0.4 | B2
9 | 0.34 | B3
10 | 0.93 | B4
11 | 1.2 | B5
12 | 0.4 | B6

Target: T2, human PD-L2 (full-length, on cells)
Assay: FACS binding to CHO-K1 cells expressing human PD-L2
Summary of the method: (§3)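 Flow cytometry on a BD FACSCalibur was used to measure binding to CHO-K1 cells stably expressing full-length human PD-L2. Staining took 20 min at 4° C with APC-labelled anti-rat IgG or anti-human IgG Fc, chosen to match the antibody format. GraphPad Prism was used for non-linear curve fitting of percentage of maximal binding against concentration to obtain the binding EC50.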

Row | EC50 [nM] | Binder
13 | 0.42 | B1
14 | 0.38 | B2
15 | 0.38 | B3
16 | 1.6 | B4
17 | 0.34 | B6

target: T3, human PD-L2 (full-length, on cells); assay: hybridoma supernatant screen on cells expressing human PD-L2

Row | binding result | Binder
18 | binds | B1
19 | binds | B3
20 | binds | B4
21 | binds | B5
22 | binds | B6

Target: T2, human PD-L2 (full-length, on cells)
Assay: FACS, NCI-H226 cells
Summary of the method: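 NCI-H226 human lung squamous carcinoma cells (1.5×10⁵) were stained with APC-labelled goat anti-rat IgG (1:2000) for 20 min at 4° C. Binding to endogenous PD-L2 on these cells was then read by flow cytometry on a BD FACSCalibur. GraphPad Prism non-linear fitting of percentage of maximal binding versus concentration gave the binding EC50.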

Row | EC50 [nM] | Binder
23 | 0.0989 | B1
24 | 0.146 | B2
25 | 0.0776 | B3
26 | 0.517 | B4
27 | 0.644 | B5
28 | 0.177 | B6

Target: T2, human PD-L2 (full-length, on cells)
Assay: FACS, CHO-K1 expressing human PD-L2
Summary of the method: as §3

Row | EC50 [nM] | Binder
29 | 0.265 | B1
30 | 0.408 | B2
31 | 0.252 | B3
32 | 0.765 | B4
33 | 0.873 | B5
34 | 0.338 | B6

target: T3, human PD-L2 (full-length, on cells); assay: FACS binding on cells expressing human PD-L2 (per the examples)

Row | binding result | Binder
35 | binds | B2
36 | binds | B7

target: T5, human PD-L1 (full-length, on cells) (human, UniProt Q9NZQ7 19-290); assay: FACS on HEK293 cells stably expressing full-length human PD-L1
T5 construct: whole, on cells; HEK293 cells stably expressing full-length human PD-L1
T5 sequence (Q9NZQ7 19-290): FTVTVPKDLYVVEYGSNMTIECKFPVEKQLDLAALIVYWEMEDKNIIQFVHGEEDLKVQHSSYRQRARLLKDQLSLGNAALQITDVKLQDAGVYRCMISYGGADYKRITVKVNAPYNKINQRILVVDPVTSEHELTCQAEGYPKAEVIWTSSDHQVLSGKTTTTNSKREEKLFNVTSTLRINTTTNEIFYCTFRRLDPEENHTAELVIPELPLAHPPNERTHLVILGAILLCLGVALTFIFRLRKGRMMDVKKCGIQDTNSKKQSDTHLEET
Method: (§4) The ability of anti-PD-L2 antibodies binding to mouse PD-L2, human PD-L1 or cyno PD-L2 was determined by FACS. HEK293 cells stably expressing full-length monkey PD-L2, mouse PD-L2 or human PD-L1 were established, subcloned and verified. For binding assay, 1.5×10⁵ cells in 100 μl of FACSwash buffer were incubated with individual anti-PD-L2 antibodies (0.5 μg/ml) for 30 min. After three times of washing, the cells were re-suspended in FACSwash buffer containing FITC-labelled goat-anti-rat IgG (Thermo Fisher, 1:1000) or APC-labelled goat-anti-ratIgG (Biolegend, Clone Poly4054) at a 1:2000 dilution for 20 min at 4° C., washed three times and subsequently subjected to FACS analysis. FACS data was analysed using FlowJo Software and depicted as histograms including secondary antibody only controls.

Row | binding result | Binder
37 | no binding (tested: 0.5 µg/ml) | B1
38 | no binding (tested: 0.5 µg/ml) | B2
39 | no binding (tested: 0.5 µg/ml) | B3
40 | no binding (tested: 0.5 µg/ml) | B4
41 | no binding (tested: 0.5 µg/ml) | B5
42 | no binding (tested: 0.5 µg/ml) | B6

Target: T2, human PD-L2 (full-length, on cells)
Assay: FACS blocking of PD-1 binding to CHO-K1/hPD-L2; high antigen concentration
Summary of the method: as §2

Row | IC50 [nM] | Binder
43 | 0.127 | B1
44 | 0.343 | B2
45 | 0.198 | B3
46 | 0.58 | B4
47 | 0.733 | B5
48 | 0.464 | B6

target: T4, mouse PD-L2 (full-length, on cells); assay: FACS on HEK293 cells stably expressing full-length mouse PD-L2
Method: as §4

Row | binding result | Binder
49 | no binding (tested: 0.5 µg/ml) | B1
50 | no binding (tested: 0.5 µg/ml) | B2
51 | no binding (tested: 0.5 µg/ml) | B3
52 | no binding (tested: 0.5 µg/ml) | B4
53 | no binding (tested: 0.5 µg/ml) | B5
54 | no binding (tested: 0.5 µg/ml) | B6

Target: T2, human PD-L2 (full-length, on cells)
Assay: FACS binding to CHO-K1 cells expressing human PD-L2
Remark: another data set of the same source
Summary of the method: as §3

Row | EC50 [nM] | Binder
55 | 0.37 | B2
56 | 0.32 | B3
57 | 0.37 | B6

Target: T1, recombinant human PD-L2-Fc-biotin
Assay: blocking of hPD-L2 binding to HEK293-hPD-1 cells
Summary of the method: as §1

Row | IC50 [nM] | Binder
58 | 0.013 | B1
59 | 0.014 | B2
60 | 0.012 | B3
61 | 0.026 | B4
62 | 0.029 | B5
63 | 0.017 | B6
